Drawing on the supplement of paper PMC12042874, this text covers amyloid nucleation score for 140 substances.

± gives the uncertainty stated by the source.

The series is described as follows: amyloid nucleation score (Sup35N fusion, yeast selection) (log enrichment); library NNK1; higher = more nucleation; inactive = no reads after selection. The procedure, abridged:
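Yeast lacking psi expressed peptides of 20 random codons fused to Sup35N, received 100 μM copper sulfate for 24 hours, and were then grown for 7 days at 30°C on medium lacking adenine and uracil. Illumina sequencing of input and output plasmid inserts provided the reads. Nucleation scores are DiMSum log enrichments of output over input, centred on the mode of non-aggregating sequences. Any sequence with under 100 input reads was excluded.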
AYSERTSGTMTRVWWDLRSR: the amyloid nucleation score is -0.795 ± 1.1.
The figure for AYSRNYYQYAVNEFGDVVFE is 0.312 ± 1.1; for AYYGDGFAKGTMLMTS it is -0.35 ± 0.32.
With CAAGARSSGEMAYIARMKAG the figure was 0.482 ± 0.69; with CAIWFRTEWFWTVCTWVSGH, -0.201 ± 0.43; with CAKGGPSGYKN, -1.41 ± 0.98.
The figure for CALLRCMLGSYSQYVARVGE is 0.504 ± 0.39.
As to CANFVFCCMGE, the amyloid nucleation score came to 7.396 ± 0.072.
The figure for CCGVDAFSSRESR is 1.55 ± 0.41; for CCLTILSIS it is -0.281 ± 0.31.
With CCRSRLLIITRTVSTAGDSR the figure was -0.54 ± 1.3; with CCSRGLKVPDANRASKSGCE, 1.08 ± 0.52; with CCVDGLLLIERHVSLQYHSA, 0.135 ± 0.63.
On to CCVRACFPWNVLCKEMIFTR, for which the amyloid nucleation score was -0.663 ± 1.6.
The figure for CDINLRKDTGISHLNGLFNA is 0.755 ± 0.43.
With CDIVNKSTGGLSTRALKIVY the figure was 0.051 ± 0.69; with CDKTYPANSLCLKDFGQLEG, -0.019 ± 0.64.
The entry for CDQASL is “inactive”.
On to CDRVGSKEQSFDKWPLWFAP, for which the amyloid nucleation score is -1.18 ± 1.9.
The figure for CDTFYLLVLALTYWEWANLE is -0.497 ± 0.99; for CDVAVVSFFGMADDPVYRVH it is 1.54 ± 0.48; for CDVRLPF it is 0.249 ± 0.61.
Turning to CDWSCSDSVCFITLCKYDDC, the amyloid nucleation score was found to be 6.921 ± 0.047.
Consider CECRRANVADPFRVSCWAKF, for which the amyloid nucleation score came to 0.156 ± 1.2.
The figure for CEKTWNLRDCSGLLQVTRG is 0.099 ± 0.29; for CENVIEFNENVKG it is 0.503 ± 0.29.
With CEVAQCHYLVVWFCAWAWRY the figure was 0.939 ± 0.68.
With CFDFYSYRVVSSAINYQFVM the figure was -1.02 ± 0.39.
CFEVHTHSESLL: the amyloid nucleation score is -0.662 ± 0.72.
The figure for CFFDGICLDQERYVMNFRAF is 0.104 ± 0.51.
The figure for CFFILW is -0.066 ± 0.55; for CFILTVTYLNVGGNRMTAFH it is 3.36 ± 0.1; for CFNTRHRVQELRL it is -0.224 ± 1.7.
With CFNVYWLFAIGGYGMRLRSD the figure was -1.04 ± 1.1; with CFRDGYSKLCGCYVSMRTGH, 0.459 ± 0.53.
In the case of CFRTFKFLI, the amyloid nucleation score came out at 2.49 ± 0.27.
As to CFSQPHGAVANHNAFSDNPW, the amyloid nucleation score was -0.289 ± 0.39.
With CFVMLFDRYVNLLIGNQLWY the figure was 0.145 ± 0.35; with CFVVYGQTPSTVPRINAVLS, 6.46 ± 0.069.
With CGADVNVWMTIWHYLFIDRG the entry was “inactive”; with CGFDRMAMYWVNFDLHWSSA, 0.121 ± 0.36.
With CGKPPFGNYWGTWCKIVVTL the figure was 0.746 ± 0.62; with CGMARWSRKSTELAHKQNVD, 0.277 ± 0.61; with CGSRSCSLFDRKWIRYFLGC, 0.759 ± 0.34.
Consider CGVEA, for which the amyloid nucleation score was -0.542 ± 0.76.
The figure for CHLIL is 0.115 ± 0.34; for CHLTMIMNLVIMMAWNPLHC it is 0.765 ± 0.47; for CHYMSHSSWHSWTNRVMRDM it is 0.531 ± 0.29.
With CIFLM the figure was 0.21 ± 0.48.
The figure for CIGNCYGWLSDLSWWSCPSS is 0.676 ± 0.3; for CIIDKFGVLIV it is “inactive”.
In the case of CIILKTIPIIDY, the amyloid nucleation score result is “inactive”.
Turning to CIIVFPISTPWAQGSYIRIQ, the amyloid nucleation score turned out to be 0.041 ± 1.2.
Consider CILSSHL, for which the amyloid nucleation score is 2.61 ± 0.33.
The substance CISAVPCM came in with an amyloid nucleation score of 0.497 ± 0.43.
With CIYIQYYLNLTVFCRVRLNA, the amyloid nucleation score is -0.516 ± 1.7.
With CIYIWCGVFGSYFGFLVLAA the figure was 0.18 ± 0.49.
With CLARNSYPDVFRSETGKEAV the figure was -0.093 ± 0.7; with CLCLKVFLQKVVRGCNR, 1.01 ± 0.29.
The figure for CLDVFASISMRHFYFVFMCY is 0.487 ± 0.75.
The substance CLFLIKKHVNNDMGSVRRLS registered an amyloid nucleation score of 0.317 ± 0.71.
Consider CLFNSGFSDIGLRGMWGRKF, for which the amyloid nucleation score was 0.358 ± 0.35.
The figure for CLGAVIDSGNHSNSCYIRGD is 2.07 ± 0.67; for CLKFLDLNIKIDPYQFSF it is “inactive”.
With CLKHLWLRQSKEKVD the entry was “inactive”; with CLLFTEMFTPLVEVAESM, -0.038 ± 0.48.
With CLLHEASCGWFFGWFVRHT, the amyloid nucleation score came out at 0.989 ± 0.28.
The figure for CLNVYNLFMSLPGVAAPPMV is 6.9 ± 0.085; for CLRLVQEFTFMYTVVHGARC it is 1.13 ± 0.71.
With CLSSALLHLFRRNRIISVVT the figure was 0.193 ± 0.39; with CLTIGCWRFSF, 4.57 ± 0.093.
With CLVVPCD the figure was 0.151 ± 0.42; with CMGLFVTSSL, 0.38 ± 1.2.
Consider CMIIRVGGRQGIHYSFSRMD, for which the amyloid nucleation score is -0.652 ± 0.26.
As for CMLLNWIPMRRARLTTFVGK, the amyloid nucleation score was found to be 0.433 ± 0.58.
For CMRMRMFSKVVGSLWWESGY, the amyloid nucleation score stood at 0.054 ± 0.39.
For CMTPS, the amyloid nucleation score result was “inactive”.
With CMYFFRVTGKINNINSLYCW the figure was -0.824 ± 0.38.
Regarding CNFHVCLRLRDIWSRLYLVV, the amyloid nucleation score was 7.157 ± 0.07.
Turning to CNHSTSFVEVVERL, the amyloid nucleation score is -0.085 ± 0.42.
With CNLYFSYNCVFT, the amyloid nucleation score is -0.592 ± 0.24.
With CNPSG the figure was 0.819 ± 0.51; with CNQYWVSQ, 0.322 ± 0.26.
The entry for CNRLIHDMHVCLTNE is “inactive”; for CNSLTLFRWYFNMVGNIQAN it is -0.143 ± 0.37; for CPGFD it is 0.595 ± 0.64.
The figure for CPLRIIQLMCTNRGLMGRLG is -0.071 ± 0.31; for CPMWYYCRSVLSSLAVSDCS it is “inactive”; for CPRTWFLENNRVTIMHFYRG it is 6.67 ± 0.08.
Turning to CPVWELLKDCMCHKNGLFCT, the amyloid nucleation score is 1.28 ± 0.58.
Consider CQIPVFENYFLHLGWSYAPL, for which the amyloid nucleation score was 0.224 ± 1.4.
The figure for CQNFDDI is 0.117 ± 0.9; for CQSVFRGTIHS it is -0.235 ± 0.55.
With CRACSHMTKLLIGTFLLLDF the figure was -0.325 ± 0.6; with CRCSSQLRYMHGRFWFDRSV, 0.084 ± 0.62; with CRFMSVICHTLFWTPLTFYY, 0.592 ± 0.83.
Turning to CRGFFLGFPIHQVKAFCFCR, the amyloid nucleation score is -0.047 ± 1.7.
CRIVKARDGC: the amyloid nucleation score was -1.23 ± 2.4.
On to CRKVITRVGSVTVTGGFYLI, for which the amyloid nucleation score was -0.374 ± 0.67.
With CRLKLNPSVHGIGRGVCLAE the figure was -0.464 ± 0.48.
Regarding CRMGFNQLWLKLRNRCVGLG, the amyloid nucleation score was -0.008 ± 0.36.
With CRNTLPGP the figure was -0.398 ± 0.44.
The figure for CRRIWA is -0.377 ± 0.34.
Turning to CRTYYCHTHGPAQKDHYDRG, the amyloid nucleation score was -0.78 ± 0.89.
The figure for CRVLWQWNSKLGCFAAALNL is -0.326 ± 0.63; for CRYTMGSNKVALFYGWMHPG it is 0.726 ± 0.66.
CSDRRS: the amyloid nucleation score was -0.054 ± 0.53.
With CSKFLVVVSVYFLVYSVEHM the figure was -0.94 ± 1.6.
CSLRYVLHYRYVGLETATNT showed an amyloid nucleation score of 0.763 ± 0.5.
The figure for CSQLLKLTQSAYLFFVNQDS is 0.676 ± 0.52; for CSSIWHCPVYDVITLM it is 0.282 ± 0.75.
For the substance CSTFRVDFFSPCFLL, the amyloid nucleation score was 6.006 ± 0.05.
The figure for CSVMSNARRIWDRMQLNGVK is -0.568 ± 0.33; for CSWDYMVVR it is -0.137 ± 0.98; for CTEFRFF it is 0.314 ± 0.47.
The figure for CTFILVLHLLHINTDHIMSA is -0.176 ± 1.1.
With CTGSVWYAPLWMWWEWLR the figure was 0.498 ± 0.69; with CTIRYWF, 1.5 ± 0.42; with CTVMHELCCRWFELFRRSVR, 1.45 ± 0.63.
As to CVCLKDPANLSAIGCRGESL, the amyloid nucleation score is -1.6 ± 2.7.
The figure for CVCLRGDKGPLSRLRLRSSS is 0.254 ± 1.
With CVDCALQFLGCRVGALLTRG the figure was -0.875 ± 1.7; with CVELVLSCV, -0.095 ± 0.43; with CVLFAYFNALF, 1.3 ± 0.57.
In the case of CVRLHPSDWAFYRAPFNKHG, the amyloid nucleation score turned out to be 0.659 ± 0.55.
With CVRNGLGCYSCTRTFFTVIV the figure was -0.409 ± 0.94; with CVSFMVTFTIMRQLYNCKCR, 3.91 ± 0.077.
With CVVGLISGSPPIRSVFKCNR the figure was 0.156 ± 0.98; with CWFTAVLARPLWNSSVSSVA, -0.369 ± 0.34.
With CWGLLSGDCHALEKFNRFYL the figure was -0.086 ± 0.48.
As for CWLGCYPSSGEQWGGWFNAI, the amyloid nucleation score was -0.344 ± 0.7.
With CWLTRCCITWVIHRVMANLM the figure was 0.51 ± 0.84; with CYELSGWGNSWVGNRSLGFV, 0.626 ± 0.46.
With CYIYPVFLGFMYCREEGNMG the figure was 1.93 ± 0.37; with CYLPWDSKNGVEDLYWYEFK, 1.79 ± 0.13; with CYYSRFHFAPISIMFCVNGG, 5.99 ± 0.076.
With DAMFLL the figure was -0.358 ± 0.31; with DATCLESLALSYKG, -0.573 ± 0.41; with DCEGLFI, 0.864 ± 0.74.
Turning to DCESVWSIKGNKPMLFDRIL, the amyloid nucleation score is -1.45 ± 1.7.
